Test results from publication doi:10.1101/2025.04.18.649599.

What was measured:
Test in all cases: photon counting histogram
[1] = biological target: HaloTag-VfAuLOV (light-oxygen-voltage (LOV) domain of V. frigida Aurochrome1) (V. frigida)
[2] = biological target: HaloTag-AtCRY2 (photolyase homology region of cryptochrome 2 from A. thaliana) (A. thaliana)
[3] = biological target: HaloTag-HsCRY2 (human CRY2 photolyase homology region) (human)
[4] = biological target: HaloTag-bZip-VfAuLOV (V. frigida)
[5] = biological target: HaloTag-AtCRY2(W374A) (A. thaliana)

“HaloTag-VfAuLOV (light-oxygen-voltage (LOV) domain of V. frigida Aurochrome1) (domain or fragment)” showed a stoichiometry N [1] of 2.
Substance “HaloTag-AtCRY2 (photolyase homology region of cryptochrome 2 from A. thaliana) (domain or fragment)” has a relative brightness (relative to the monomeric standard) [2] of 2 to 4, a relative brightness at 750 nM (relative to the monomeric standard) [2] of 3 and a stoichiometry N [2] of 4.
Work on “HaloTag-HsCRY2 (human CRY2 photolyase homology region) (domain or fragment)” yielded a relative brightness at about 750 nM (relative to the monomeric standard) [3] of 1.6.
Substance “HaloTag-bZip-VfAuLOV (domain or fragment)” has a stoichiometry N [4] of 2.
Work on “HaloTag-AtCRY2(W374A) (domain or fragment)” yielded a relative brightness (relative to the monomeric standard) [5] of 1.5.
